For 3 molecules, BBC-OH decomposition activity results are on record in patent publication US12644128B2, “Method for producing HSL protein having catalytic activity for 2-oxoglutaric acid-dependently oxidizing 4-HPPD inhibitor” (National Agriculture and Food Research Organization, priority 2017, dated 2026).

B1: OsHSL2 protein: rice-derived HSL protein, typically a protein having an amino acid sequence of SEQ ID NO: 6 (protein, listed as Oryza sativa)
chain: MADEPWRLPNIVQELAAGVQEPPSRYLQDLAGGDQLAGAEIPEPIPTIDLGRLSGSDGADEAAKLRSALQNWGLFLVSNHGVETSLIDAVIEAAREFFRQPVEEKKKLSNLIDGKRFQIEGYGNDPVQTKDQILDWSDRLHLKVEPECDRNLAFWPTHPKSFRDILHEYTLKIKTVKNDILLALAKLLELDEDCLLNQFSDRAITTARFNYYSPCPRPDLVLGLKPHSDLCALTVLLTDKEVGGLQVLRDGTWYSVPAVRDYSLLINIGVTLEIMTNGTFRAPLHRVVTNAERERMSVAMFYAVDGEKEIEPVAELLGLKQQSARYRGIKGKDLLIGHYEHFSRGGRVVDSLKI
B2: SbHSL1 protein: sorghum-derived HSL protein, typically a protein having an amino acid sequence of SEQ ID NO: 22 (protein)
chain: MAGESWKVPTPVKDLAALVEEPPSQFVQREEDRPGSLMLAADMPDPLPIVDLDKMSTADEATKLRSALQTWGLFLATNHGIDVSLMEDLMKASREFFNQPLQERQKYSNLREGTRFQLEGYGSDPVIAQDHILDWSDRLQLKVEPEDERNLAQWPKHPESFRDLLHEYATKTKTVMVKILRAMAKTLELDEEDFIDQIGGRPQAYARFNYYPPCPRPELVLGIKAHSDGPLLTVLLVDREVGGLQIQRENKWFNVPSIPHALVINLGDSLEIMSNGIFKSPVHRVVTNAEKERISLAMLYAVQRDNVLEPAPGLLDEKRPAKYRRITEAHFLEGVKEHFSKGMRMIETLKI
modifications: Sorghum bicolor
B3: ZmHSL2 protein: corn-derived HSL protein, typically a protein having an amino acid sequence of SEQ ID NO: 20 (protein)
chain: MAVESWTVPTPVKDLAALVDEPPSRFVQREEHRPGSLMLAADMPDPLPIVDLNKLSTADEAAKLRSALQTWGLFLATNHGIDASLMEDLMEASREFFHQPLQERQKYSNLREGTRFQLEGYGSDPVVAQDHILDWNDRLQLKVEPEDERSLAQWPKYPESFRDLLHEYASKTKSMRDRILRAMAKILELDEEEFIKQLGASPQAYARFNYYPPCPRPELVLGIKAHSDGPVLTVLLVDREVGGLQVQRENTWFNVPFVPHTLVINLGDSLEIMSNGIFKSPVHRVVTNAEKERISLAMLYAVERDNVLQPAAGLLDEKRPARYRRITEADFLEGVKEHFSKGIRMIETLKI
modifications: Zea mays

The assay in a line: 4-HPPD inhibitor decomposition activity by HPLC, substrate BBC-OH. It is filed as biochemical. As to conditions: cell-free synthesized protein; FeCl2, ascorbic acid, 2-oxoglutarate; 30° C. for 3 hours; HPLC. The source says: Then, the decomposition reaction of a 4-HPPD inhibitor was examined in the presence of divalent iron ions, 2-oxoglutarate, and molecular oxygen in a test tube by a method described later using the HIS1 protein prepared by this cell-free protein synthesis system.
Here, in commercially-available wheat germ extracts, dithiothreitol (DTT) is used as a reducing agent and a protein synthesizing reaction liquid also contains DTT. It was confirmed in advance by liquid chromatography that under the coexistence of divalent iron ions and ascorbic acid, which is a stabilizer for the divalent iron ions, DTT generated radical compounds and secondarily affected the enzyme reaction of HIS1 proteins. For this reason, in the present Example, an unreported protein synthesizing reaction system using Tris (2-carboxyethyl) phosphine (TCEP) as a reducing agent instead of DTT was newly constructed, with which the synthesis of HIS1 proteins and the like was conducted to examine the 4-HPPD inhibitor decomposition activity of these. The decomposition activity was analyzed on the reaction liquid of the protein and the 4-HPPD inhibitor using a high-performance liquid chromatography (mobile phase; 0.5% acetic acid water:acetonitrile=65:35, flow rate; 1 mL/min, feeding; isocratic, column; CAPCELL PAK ADME S5).
Then, the amounts of the synthesized proteins obtained in Examples 1 to 4 as described above were estimated as described below, followed by the analysis on the 4-HPPD inhibitor decomposition activities.
Cell-free protein synthesis was conducted without adding [^14C]-Leucine Leucine under the same conditions as those in the estimation of the synthesized amount to estimate the protein concentration of this translation reaction liquid from the above-described estimation. Then, 100 μl of the translation reaction liquid was subjected to buffer exchange to a basic translation buffer (30 mM HEPES-KOH (pH=7.8), 100 mM KOAc) by using the illustra MicroSpin G-25 column (manufactured by GE Healthcare). The amounts of the solution before and after the buffer exchange were measured and the estimated protein concentration was corrected.
An enzyme reaction liquid was prepared by mixing 250 mM of HEPES-KOH (pH 7.0) with a mixture liquid, which contained 0.25 mM of FeCl2, 1.5 mM of ascorbic acid, 1.5 mM of 2-oxoglutarate, and 0.75 mM of a substrate, and a translation reaction liquid, which contained a synthesized enzyme protein, in a proportion of 40% and 60%, respectively. After incubation at 30° C. for 3 hours, 100% methanol in the same amount as the enzyme reaction liquid was added and sufficiently mixed, followed by being left to stand for 5 minutes on ice. This was subjected to centrifuge separation (20, 400 g, 20 minutes, 4° C.) and the supernatant was passed through Cosmonice Filter W (0.45 μm) (manufactured by Nacalai Tesque, Inc.) to obtain a sample for high-performance liquid chromatography. The analysis on the substrate and the product before and after the enzyme reaction was conducted by loading a column_Pro C18 (150×4.6 mm I.D.) (manufactured by YMC Co., Ltd.) on a high-performance liquid chromatography device_ELITE LaChrom L-2000 series (manufactured by Hitachi, Ltd.). Elution was conducted at a flow speed of 1 mL/min and a column temperature of 40° C. under solvent conditions of acetonitrile:water (1% acetic acid)=55:45 or 50:50 (BBC-OH), acetonitrile:water (1% acetic acid)=45:55 (Sulcotrione), acetonitrile:water (1% acetic acid)=45:55 (Mesotrione), acetonitrile:water (1% acetic acid)=55:45 or 50:50 (tefryltrone), and acetonitrile:water (1% acetic acid)=55:45 or 50:50 (Tembotrione), respectively, and the compound was detected at an ultraviolet wavelength of 286 nm.
Note that the 5-point scale of the decomposition activity in each of FIGS. 12 to 17 is based on a relative value of the degree of decrease in a substrate-derived peak area detected by HPLC where the degree of decrease in the HIS1 protein was designated by 5. […]
In the case of B1, the BBC-OH decomposition activity result is given as “only very weak decomposition activity”.

On to B2, for which the BBC-OH decomposition activity entry is given as “had the decomposition activity, which was less effective than that of the HIS1 protein”.

On to B3, for which the BBC-OH decomposition activity entry is “had the decomposition activity, which was less effective than that of the HIS1 protein”.
